The source of these data is publication doi:10.1101/2023.08.24.554544 (bioRxiv, 2023).

In the test the target is T1, GST-tagged A. thaliana Rpn10 (AtRpn10) vWA domain (Arabidopsis thaliana, UniProt P55034 2-193).
T1 construct: also called GST-AtRpn10; GST-Rpn10vWA
T1 sequence: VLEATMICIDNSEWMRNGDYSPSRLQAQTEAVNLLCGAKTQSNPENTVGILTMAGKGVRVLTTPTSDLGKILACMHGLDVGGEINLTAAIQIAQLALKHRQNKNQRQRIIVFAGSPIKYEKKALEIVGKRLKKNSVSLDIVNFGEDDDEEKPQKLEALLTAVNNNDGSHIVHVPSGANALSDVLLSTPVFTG
Briefly: SPR. The following applies: both partners purified.

B1: onion yellows phytoplasma (OY-M strain) SAP05 (OY_SAP05) (natural protein)
chain: APHEERVGDMRIVNITFSDINSIKNFQPFSQYFDFTLTGPRYNGNIAQFAMIWKIKNPPHNLLGVFFDNNTRDDEDDKYTLEELKQMGNGAKNMYIFWQYEQK
notes: source: E. coli BL21(DE3), purified (Ni-NTA, Superdex 75)
One may read the Kd as the equilibrium constant for the complex coming apart. The low end stands for tighter binding, the high end for weaker binding. For B1, the affinity, expressed as Kd, was 398 ± 39 nM.

B2: aster yellows witches'-broom phytoplasma SAP05 (AYWB_SAP05), mature, 33-135 (natural protein)
chain: APNEEFVGDMRIVNVNLSNIDILKKHETFKKYFDFTLTGPRYNGNIAEFAMIWKIKNPPLNLLGVFFDDGTRDDEDDKYILEELKQIGNGAKNMYIFWQYEQK
notes: as for B1
In the case of B2, the Kd amounted to 400 ± 39 nM.
